According to the supplement of paper PMC10567573:

B1: CDC25A (parent)
chain: QLIDPDENKENEAFEFKKPVRPVS

Variants of: B1
Assay: protein stability index of a GFP-peptide fusion (GPS, HEK-293T) (PSI 1-6); higher = more stable
Conditions: c terminus: a fixed tail appended
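Further: lentivirally expressed fusions sorted by FACS into six bins by GFP to DsRed ratio, PSI derived from sequencing read proportions per bin multiplied by bin number.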

In order of falling protein stability index:
1. QLIDPDENKENEAFEFKKPVNPVS [R21N]  5
2. QLIDPDENKETEAFEFKKPVRPVS [N11T]  4.99
3. QLIDPDENKENEAFEFKKPKRPVS [V20K]  4.67
4. QLIDPDENKENEAFEFKKPNRPVS [V20N]  4.63
5. QLIDPDENKEVEAFEFKKPVRPVS [N11V]  4.63
6. QLIDPDENKENGAFEFKKPVRPVS [E12G]  4.61
7. QLIDPDENKENEAFEFKKPTRPVS [V20T]  4.54
8. QLIDPDENKEPEAFEFKKPVRPVS [N11P]  4.49
9. QLIDPDENKENEAFEFKKPVPPVS [R21P]  4.46
10. QLIDPDENKENEAFEFAKPVRPVS [K17A]  4.44
11. QLIDPDENKENEAFEFKKPPRPVS [V20P]  4.43
12. QLIDPDENKENEAFEFKKPVCPVS [R21C]  4.34
13. QLIDPDENKENEDFEFKKPVRPVS [A13D]  4.34
14. QLIDPDENKENEAFEFKKPVEPVS [R21E]  4.33
15. QLIDPDENKEQEAFEFKKPVRPVS [N11Q]  4.32
16. QLIDPDENKENEAFEFKKPDRPVS [V20D]  4.31
17. QLIDPDENKENEAFEFKKPHRPVS [V20H]  4.3
18. QLIDPDENKEYEAFEFKKPVRPVS [N11Y]  4.29
19. QLIDPDENKENEAFEFPKPVRPVS [K17P]  4.27
20. QLIDPDENKENEAFEFKKPVDPVS [R21D]  4.25
21. QLIDPDENKENEPFEFKKPVRPVS [A13P]  4.25
22. QLIDPDENKEMEAFEFKKPVRPVS [N11M]  4.25
23. QLIDPDENKENEIFEFKKPVRPVS [A13I]  4.23
24. QLIDPDENKESEAFEFKKPVRPVS [N11S]  4.22
25. QLIDPDENKENPAFEFKKPVRPVS [E12P]  4.17
26. QLIDPDENKENSAFEFKKPVRPVS [E12S]  4.16
27. QLIDPDENKENEMFEFKKPVRPVS [A13M]  4.11
28. QLIDPDENKENEAFEFKKPARPVS [V20A]  4.09
29. QLIDPDENKENEAFEFKKPVTPVS [R21T]  4.04
30. QLIDPDENKENEAFEFKKPVKPVS [R21K]  4.04
31. QLIDPDENKENEAFEFKKPERPVS [V20E]  4.04
32. QLIDPDENKENEAFEFQKPVRPVS [K17Q]  4.03
33. QLIDPDENKENEQFEFKKPVRPVS [A13Q]  4.02
34. QLIDPDENKEWEAFEFKKPVRPVS [N11W]  4.02
35. QLIDPDENKENEAFEFKKPSRPVS [V20S]  4
36. QLIDPDENKENEAFEFKKPIRPVS [V20I]  4
37. QLIDPDENKENEYFEFKKPVRPVS [A13Y]  3.99
38. QLIDPDENKENEAFEFVKPVRPVS [K17V]  3.98
39. QLIDPDENKENEAFEFKKPGRPVS [V20G]  3.97
40. QLIDPDENKENTAFEFKKPVRPVS [E12T]  3.94
41. QLIDPDENKENEAFEFGKPVRPVS [K17G]  3.91
42. QLIDPDENKENETFEFKKPVRPVS [A13T]  3.9
43. QLIDPDENKENEAFEFFKPVRPVS [K17F]  3.88
44. QLIDPDENKENEAFEFKKPVHPVS [R21H]  3.85
45. QLIDPDENKENESFEFKKPVRPVS [A13S]  3.85
46. QLIDPDENKENQAFEFKKPVRPVS [E12Q]  3.85
47. QLIDPDENKENEAFEFHKPVRPVS [K17H]  3.84
48. QLIDPDENKENKAFEFKKPVRPVS [E12K]  3.84
49. QLIDPDENKENEAFEFKKPMRPVS [V20M]  3.82
50. QLIDPDENKENEAFEFKKPVLPVS [R21L]  3.8
51. QLIDPDENKENEAFEFKKPQRPVS [V20Q]  3.79
52. QLIDPDENKENEAFEFRKPVRPVS [K17R]  3.78
53. QLIDPDENKENENFEFKKPVRPVS [A13N]  3.77
54. QLIDPDENKENELFEFKKPVRPVS [A13L]  3.73
55. QLIDPDENKENEAFEFKKPRRPVS [V20R]  3.73
56. QLIDPDENKENEGFEFKKPVRPVS [A13G]  3.71
57. QLIDPDENKENEAFEFKKPFRPVS [V20F]  3.71
58. QLIDPDENKENEAFEFYKPVRPVS [K17Y]  3.7
59. QLIDPDENKENEKFEFKKPVRPVS [A13K]  3.63
60. QLIDPDENKENEAFEFKKPCRPVS [V20C]  3.61
61. QLIDPDENKENEAFEFKKPWRPVS [V20W]  3.59
62. QLIDPDENKENEAFEFTKPVRPVS [K17T]  3.58
63. QLIDPDENKENEEFEFKKPVRPVS [A13E]  3.57
64. QLIDPDENKENLAFEFKKPVRPVS [E12L]  3.56
65. QLIDPDENKENCAFEFKKPVRPVS [E12C]  3.55
66. QLIDPDENKENEAFEFIKPVRPVS [K17I]  3.54
67. QLIDPDENKENECFEFKKPVRPVS [A13C]  3.52
68. QLIDPDENKENEAFEFSKPVRPVS [K17S]  3.48
69. QLIDPDENKENEAFEFEKPVRPVS [K17E]  3.46
70. QLIDPDENKENEAFEFWKPVRPVS [K17W]  3.43
71. QLIDPDENKENEAFEFKKPVIPVS [R21I]  3.39
72. QLIDPDENKENYAFEFKKPVRPVS [E12Y]  3.38
73. QLIDPDENKENEAFEFLKPVRPVS [K17L]  3.36
74. QLIDPDENKENVAFEFKKPVRPVS [E12V]  3.36
75. QLIDPDENKENAAFEFKKPVRPVS [E12A]  3.34
76. QLIDPDENKENIAFEFKKPVRPVS [E12I]  3.34
77. QLIDPDENKENEAFEFKKPVWPVS [R21W]  3.28
78. QLIDPDENKENEAFEFKKPVAPVS [R21A]  3.27
79. QLIDPDENKENNAFEFKKPVRPVS [E12N]  3.27
80. QLIDPDENKENEHFEFKKPVRPVS [A13H]  3.26
81. QLIDPDENKENERFEFKKPVRPVS [A13R]  3.24
82. QLIDPDENKENHAFEFKKPVRPVS [E12H]  3.21
83. QLIDPDENKENEAFEFKKPVVPVS [R21V]  3.19
84. QLIDPDENKENWAFEFKKPVRPVS [E12W]  3.19
85. QLIDPDENKENEAFEFNKPVRPVS [K17N]  3.15
86. QLIDPDENKENRAFEFKKPVRPVS [E12R]  3.1
87. QLIDPDENKENEAFEFMKPVRPVS [K17M]  3.03
88. QLIDPDENKENEWFEFKKPVRPVS [A13W]  3.02
89. QLIDPDENKENEFFEFKKPVRPVS [A13F]  3.02
90. QLIDPDENKENEVFEFKKPVRPVS [A13V]  2.88
91. QLIDPDENKENFAFEFKKPVRPVS [E12F]  2.87
92. QLIDPDENKENEAFEFKKPLRPVS [V20L]  2.85
93. QLIDPDENKENEAFEFCKPVRPVS [K17C]  2.78
94. QLIDPDENKENMAFEFKKPVRPVS [E12M]  2.78
